Data reported in patent publication US20100272719A1 (CHENGDU KANGHONG BIOTECHNOLOGIES, published 2010).

Experiments:
human VEGF165 [1] = biological target: T1, human VEGF165 (human, UniProt P15692-4 27-191); assay: binding assay on purified fusion protein (quality testing)
human VEGF165 [2] = biological target: T1, human VEGF165; assay: comparison of affinity for VEGF, reference Avastin
human VEGF165 [3] = biological target: T1, human VEGF165; assay: solution binding: human VEGF incubated 1 h at 37 C with dilutions of binder, free VEGF measured by ELISA kit

T1 sequence (P15692 other isoform, or with tags, fused parts or gaps limits assumed): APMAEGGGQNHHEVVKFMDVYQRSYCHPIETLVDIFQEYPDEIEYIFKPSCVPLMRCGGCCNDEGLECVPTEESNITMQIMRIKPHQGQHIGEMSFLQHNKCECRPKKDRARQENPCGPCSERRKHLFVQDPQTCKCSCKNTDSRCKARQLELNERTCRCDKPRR

| IC50 (human VEGF165 [1]) | fold affinity against Avastin (human VEGF165 [2]) | IC50 (human VEGF165 [3]) | Binder |
| --- | --- | --- | --- |
| ≤ 0.05 nM | 50 fold | 0.01 nM | FP3′ (FLTd2-KDRd3-KDRd4-Fc chimeric fusion protein) (Fc fusion) GRPFVEMYSEIPEIIHMTEGRELVIPCRVTSPNITVTLKKFPLDTLIPDGKRIIWDSRKGFIISNATYKEIGLLTCEATVNGHLYKTNYLTHRQTNTIIDVVLSPSHGIELSVGEKLVLNCTARTELNVGIDFNWEYPSSKHQHKKLVNRDLKTQSGSEMKKFLSTLTIDGVTRSDQGLYTCAASSGLMTKKNSTFVRVHEKPFVAFGSGMESLVEATVGERVRIPAKYLGYPPPEIKWYKNGIPLESNHTIKAGHVLTIMEVSERDTGNYTVILTNPISKEKQSHVVSLVVYVPP |
|  |  | 0.03 nM | VEGF-TRAP (FP1′, FLTd2KDRd3-Fc) (Fc fusion, UniProt P17948 129-230, looked up, domain: 2nd Ig-like domain of FLT-1;domain: 3rd Ig-like domain of KDR; also called VEGF Trap (R1R2); not shown: human immunoglobulin Fc (IgFc)) SDTGRPFVEMYSEIPEIIHMTEGRELVIPCRVTSPNITVTLKKFPLDTLIPDGKRIIWDSRKGFIISNATYKEIGLLTCEATVNGHLYKTNYLTHRQTNTIIDVVLSPSHGIELSVGEKLVLNCTARTELNVGIDFNWEYPSSKHQHKKLVNRDLKTQSGSEMKKFLSTLTIDGVTRSDQGLYTCAASSGLMTKKNSTFVRVHEK |
